Data on ten molecules can be found in patent US20250041437A1, “HUMANIZED MUC1 ANTIBODY AND ANTIBODY DRUG CONJUGATE” (Sun Pharma Advanced Research Company Limited, priority 2023, published 2025).

The subject of one series is SKOV-3 cells. The experiment in a line: Growth inhibition of human cancer cell lines, SKOV-3. It is filed as cell-based. The settings on record: SKOV-3, moderate MUC1 expressing. As for the experimental part: (§1) Human cancer cell lines (such as Colo357, HT29, SKOV3, BxPC3 and T47D) were seeded at 5000 cells/well in a 96-well plate flat bottom clear plate and allowed to adhere overnight. Next day, antibody/ADCs were added to these cells at the mentioned concentration or at a mentioned concentration range. Post 5-7 days of treatment, 20 μl of presto blue dye was added to wells and absorbance was recorded at 570 nm (600 nm reference wavelength). Percent survival was calculated against wells containing untreated cells in complete media and IC50 was calculated in Graphpad Prism.

The next series deals with HT-29 cells. The experiment in a line: Growth inhibition of human cancer cell lines, HT-29. It is filed as cell-based. The settings on record: HT-29, no MUC1 expressing. As for the experimental part: as §1
Series [1] concerns COLO-357 pancreatic carcinoma cells. The experiment in a line: Growth inhibition of human cancer cell lines, COLO-357. The settings on record: COLO-357, high MUC1-SEA expressing.
Series [2] deals with T1, human MUC1-expressing SKOV3 cell line (Homo sapiens, UniProt P15941).
T1 construct: endogenous in cells; host or cells: SKOV3, COLO357, HT29 (human cancer cell lines)
T1 sequence (P15941 24-1255): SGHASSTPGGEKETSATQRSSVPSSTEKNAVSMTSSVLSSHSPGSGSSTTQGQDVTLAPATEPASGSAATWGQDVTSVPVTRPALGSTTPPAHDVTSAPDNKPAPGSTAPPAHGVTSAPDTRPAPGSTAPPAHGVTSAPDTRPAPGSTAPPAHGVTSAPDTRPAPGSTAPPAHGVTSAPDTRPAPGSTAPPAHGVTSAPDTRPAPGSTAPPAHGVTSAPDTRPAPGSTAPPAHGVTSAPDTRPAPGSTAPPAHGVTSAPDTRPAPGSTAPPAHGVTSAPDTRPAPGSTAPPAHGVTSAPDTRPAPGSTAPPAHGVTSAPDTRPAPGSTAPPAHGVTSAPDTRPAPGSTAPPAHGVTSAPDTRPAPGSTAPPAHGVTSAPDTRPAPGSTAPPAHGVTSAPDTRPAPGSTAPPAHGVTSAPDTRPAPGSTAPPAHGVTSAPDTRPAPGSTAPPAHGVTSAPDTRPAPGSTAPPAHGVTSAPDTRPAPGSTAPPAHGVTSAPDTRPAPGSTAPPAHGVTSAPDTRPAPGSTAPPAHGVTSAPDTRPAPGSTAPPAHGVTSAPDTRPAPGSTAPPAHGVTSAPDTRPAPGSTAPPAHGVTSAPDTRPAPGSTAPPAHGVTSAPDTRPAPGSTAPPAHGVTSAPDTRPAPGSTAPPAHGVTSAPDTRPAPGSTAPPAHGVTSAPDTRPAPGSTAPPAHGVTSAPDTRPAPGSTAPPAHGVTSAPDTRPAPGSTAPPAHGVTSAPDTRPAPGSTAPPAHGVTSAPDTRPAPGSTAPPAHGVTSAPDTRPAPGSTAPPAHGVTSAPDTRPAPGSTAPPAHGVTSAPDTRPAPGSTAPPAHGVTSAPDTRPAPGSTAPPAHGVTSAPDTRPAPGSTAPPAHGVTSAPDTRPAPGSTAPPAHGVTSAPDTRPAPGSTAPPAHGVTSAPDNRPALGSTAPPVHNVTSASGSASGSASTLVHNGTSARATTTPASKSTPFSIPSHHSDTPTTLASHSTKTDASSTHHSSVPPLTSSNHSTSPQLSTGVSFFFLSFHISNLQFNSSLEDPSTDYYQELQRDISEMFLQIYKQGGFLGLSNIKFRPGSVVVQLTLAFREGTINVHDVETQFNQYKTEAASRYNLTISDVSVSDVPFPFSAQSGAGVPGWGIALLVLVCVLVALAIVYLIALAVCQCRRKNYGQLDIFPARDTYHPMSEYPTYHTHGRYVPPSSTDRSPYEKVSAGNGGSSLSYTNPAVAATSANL
Briefly: Binding by flow cytometry on SKOV3 cell line. An excerpt:
The CDR residues from mouse anti-MUC1 antibody (m5F3) VH- (SEQ ID NO: 1) and VL- (SEQ ID NO: 2) domains were identified according to the three antibody numbering systems and grafted onto the human framework region sequences VH- (SEQ ID NO: 3) and VL- (SEQ ID NO: 4) domains respectively. CDRs from 5F3 were chemically synthesized and subsequently cloned into mammalian expression vectors. The expression vectors with humanized 5F3 heavy chain and light chain were named as SP66-HC and SP66-LC respectively. The VH domain of SP66 is SEQ ID NO: 5, and the VL domain of SP66 is SEQ ID NO: 6. The antibody expressed with SP66-HC and SP66-LC was named as SP66. SP66 was transiently expressed in CHO cells and purified by Protein-A affinity chromatography and evaluated for its binding to the human MUC1 SEA domain using flow cytometry on the human MUC1-expressing SKOV3 cell line (FIG. 1).
Dose dependent binding of surface MUC1 expression on human cancer cells using flow cytometer: Human cancer cell lines (COLO357, HT29 and SKOV3) or mouse cancer cell line expressing human MUC1 (DA3-TM) were harvested enzymatically using 0.25% Trypsin and 0.2% EDTA in Dulbecco's Phosphate Buffered Saline (D-PBS), washed with excess cell culture media and re-suspended at a cell density of 1-2×10^6/mL in the cell-line specific cell culture media. […]

The target in series [3] is T2, recombinant human MUC1-SEA (Homo sapiens, UniProt P15941).
T2 construct: on recombinant human MUC1-SEA on SPR; purchased Acrobiosystems MU1-H52H9
T2 sequence (P15941 1039-1148 limits assumed): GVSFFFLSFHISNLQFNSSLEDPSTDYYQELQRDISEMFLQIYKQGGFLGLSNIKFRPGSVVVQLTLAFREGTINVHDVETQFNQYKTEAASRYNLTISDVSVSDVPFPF
The experiment in a line: Binding strength by Surface Plasmon Resonance (SPR). The settings on record: Table 2. The protocol: Binding strength assessment using Surface Plasmon Resonance (SPR): MUC1 antigen (Acrobiosystems, Cat: MU1-H52H9) was captured on the anti-His immobilized on CM5 chip at 5 μl/min flow rate for 60 s. Post this concentration range of 0-50 nM of antibody or ADC is passed over MUC1 antigen at a flow rate of 30 μl/min flow rate for 120 s, keeping dissociation time of 1800 s at 25°. The dose response generated is evaluated on BIAevaluation software for the calculation of affinity of antibody to antigen as measured by dissociation constant (KD).

Series [4] deals with T3, human MUC1 expressing DA3-TM cell line (Homo sapiens, UniProt P15941).
T3 construct: expressed in transfected cells; host or cells: DA3-TM (mouse cancer cell line)
T3 sequence (P15941 24-1255): as the sequence (P15941 24-1255) above
The experiment in a line: Dose dependent binding by flow cytometry on DA3-TM cell line. The settings on record: MUC1 positive DA3-TM cell line. The text has this: Dose dependent binding of surface MUC1 expression on human cancer cells using flow cytometer: Human cancer cell lines (COLO357, HT29 and SKOV3) or mouse cancer cell line expressing human MUC1 (DA3-TM) were harvested enzymatically using 0.25% Trypsin and 0.2% EDTA in Dulbecco's Phosphate Buffered Saline (D-PBS), washed with excess cell culture media and re-suspended at a cell density of 1-2×10^6/mL in the cell-line specific cell culture media. The anti-MUC1-SEA mAb (chimeric or humanized IgG)/ADC or the reference IgG antibody/ADC were added to cells at a concentration range of 0-50 nM. The cells were maintained at 4° C. for 1 hour and washed with the excess cell culture media. These cells were further stained with goat anti-human IgG, Fcγ, conjugated with Alexa Fluor 647 (Jackson Immuno Research, West Grove, PA, USA) for 1 hour at 4° C. The concentration for goat anti-human IgG, Fcγ was as per the manufacturer's instructions. Cells were further washed with the excess cell culture media and re-suspended in 100 μl of cell culture media. Cell-associated fluorescence was detected and recorded using flow cytometry (Beckman Coulter, Cytoflex). The mean intensity of fluorescence was obtained from FlowJo software and graph was plotted in Graphpad prism of concentration versus mean intensity of fluorescence.
(A flow cytometer gives signals particle by particle.)

Substitutions are numbered along the chain they refer to.

B1: SP66: CDR-grafted humanized 5F3; VH SEQ ID NO: 5, VL SEQ ID NO: 6 (antibody, V domains shown)
VH: EIQLVQSGAEVKKPGSSVKVSCKASGHSITRGSSWHWMRQAPGQGLEWIGYIHYGGGTSYNPSLKSRATLTVDTSTNTAYMELSSLRSEDTAFYFCARYSYDITYRWFFDVWGQGTLVTVSS
VL: DIQMTQSPSTLSASVGDRVTITCRASQNIGTSIHWFQQKPGKAPKLLMYRASESISGVPSRFSGSGSGTEFTLTISSLQPDDFATYYCQQNNNWPLTFGQGTKVEVK
As for B1, the “cytotoxic effect / growth inhibition (in words)” value (in the series on SKOV-3 cells; in the series with HT-29 cells; in series [1]) was “No growth inhibition” in each case. For the same molecule, in series [2], the “binding by flow cytometry (in words)” value is “unable to bind”.

B2: HM5 LM3: variant of SP66; VH HM5 SEQ ID NO: 11, VL LM3 SEQ ID NO: 14 (antibody, V domains shown)
VH: B1 VH with A24V, S25T, A68I, L70I, V72R, A79F
VL: B1 VL with F36Y, M48I, Y49K, R50Y
B2: the kd in series [3] worked out at 0.000198 s⁻¹.

B3: HM2 LM3: variant of SP66; VH HM2 SEQ ID NO: 8, VL LM3 SEQ ID NO: 14 (antibody, V domains shown)
VH: B1 VH with A24V, S25T, A68I, L70I, V72R
VL: B1 VL with F36Y, M48I, Y49K, R50Y
For the molecule B3, the kd in series [3] came out at 0.000188 s⁻¹.

B4: HM4 LM2: variant of SP66; VH HM4 SEQ ID NO: 10, VL LM2 SEQ ID NO: 13 (antibody, V domains shown)
VH: B1 VH with A24V, S25T, V72R, A79F
VL: B1 VL with F36Y, M48I, Y49K
With B4, in series [3], the kd was 0.000261 s⁻¹.

B5: HM4 LM3: variant of SP66; VH HM4 SEQ ID NO: 10, VL LM3 SEQ ID NO: 14 (antibody, V domains shown)
VH: B1 VH with A24V, S25T, V72R, A79F
VL: B1 VL with F36Y, M48I, Y49K, R50Y
As for B5, in series [3], the kd came out at 0.000238 s⁻¹.

B6: HM3 LM3: variant of SP66; VH HM3 SEQ ID NO: 9, VL LM3 SEQ ID NO: 14 (antibody, V domains shown)
VH: B1 VH with A24V, S25T, V72R
VL: B1 VL with F36Y, M48I, Y49K, R50Y
Consider B6, for which, in series [3], the kd was 0.00347 s⁻¹.

B7: HM2 LM2: variant of SP66; VH HM2 SEQ ID NO: 8, VL LM2 SEQ ID NO: 13 (antibody, V domains shown)
VH: B1 VH with A24V, S25T, A68I, L70I, V72R
VL: B1 VL with F36Y, M48I, Y49K
With B7, in series [3], the kd stood at 0.000255 s⁻¹.

B8: HM5 LM2: variant of SP66; VH HM5 SEQ ID NO: 11, VL LM2 SEQ ID NO: 13 (antibody, V domains shown)
VH: B1 VH with A24V, S25T, A68I, L70I, V72R, A79F
VL: B1 VL with F36Y, M48I, Y49K
Take B8: the kd in series [3] was found to be 0.000213 s⁻¹.

B9: HM3 LM2: variant of SP66; VH HM3 SEQ ID NO: 9, VL LM2 SEQ ID NO: 13 (antibody, V domains shown)
VH: B1 VH with A24V, S25T, V72R
VL: B1 VL with F36Y, M48I, Y49K
Regarding B9, the kd in series [3] is 0.000492 s⁻¹.

B10: chi 5F3: chimeric anti-MUC1 SEA antibody of WO 2021/186427; variable regions SEQ ID NOs: 42 and 43; parent of the humanized antibodies (antibody, V domains shown)
VH: MRVLILLCLFTAFPGVLSDVQVQESGPDLVKPSQSLSLTCTVTGHSITRGSSWHWIRQFPGNKLEWMGYIHYGGGTSYNPSLKSRISITRDTSKNQFFLQLNSVTTEDTATFFCARYSYDITYRWFFDVWGAGTTVIVSS
VL: MVSTPQFLVFLLFWIPASRGDILLTQSPAILSVSPGERVSFSCRASQNIGTSIHWYQQRKNGSPRLLIKYASESISGIPSRFSGSGSGTDFTLSINSVESEDMADYYCQQNNNWPLTFGAGTKLELK
notes: chimeric anti-MUC1 SEA antibody of WO 2021/186427; parent of the humanized antibodies
In general, Kd refers to the constant that tells how readily two partners part at equilibrium. Regarding B10, the Kd came out at 0.0427 nM in series [3] and 1 ± 0.1 nM in series [4]. The kd in series [3] amounted to 0.000188 s⁻¹.
